From the MegaScale stability set (Tsuboyama et al. 2023)

B1: 5KPH (parent)
chain: EEKRQVKQVAKEKLLEQSPNSKVQVRRVQKQGNTIRVELELRTNGKKENYTVEVERQGNTWTVKRITRT

Variants of: B1
Test: folding stability dG (cDNA display proteolysis); higher = more stable
Settings: PBS, room temperature

Variant	folding stability dG [kcal/mol]
EEKRQVKQVAKEKLLEQSLNSKVQVRRVQKQGNTIRVELELRTNGKKENYTVEVERQGNTWTVKRITRT [P19L]	2.64
EEKRQVKQVAKEKLLEQSFNSKVQVRRVQKQGNTIRVELELRTNGKKENYTVEVERQGNTWTVKRITRT [P19F]	2.54
EEKRQVKQVAKEKLLEQSENSKVQVRRVQKQGNTIRVELELRTNGKKENYTVEVERQGNTWTVKRITRT [P19E]	2.5
EEKRQVKQVAKEKLLEQSINSKVQVRRVQKQGNTIRVELELRTNGKKENYTVEVERQGNTWTVKRITRT [P19I]	2.83
EEKRQVKQVAKEKLLEQSMNSKVQVRRVQKQGNTIRVELELRTNGKKENYTVEVERQGNTWTVKRITRT [P19M]	2.71
EEKRQVKQVAKEKLLEQSSNSKVQVRRVQKQGNTIRVELELRTNGKKENYTVEVERQGNTWTVKRITRT [P19S]	2.77
EEKRQVKQVAKEKLLEQSNNSKVQVRRVQKQGNTIRVELELRTNGKKENYTVEVERQGNTWTVKRITRT [P19N]	2.57
EEKRQVKQVAKEKLLEQSDNSKVQVRRVQKQGNTIRVELELRTNGKKENYTVEVERQGNTWTVKRITRT [P19D]	2.31
EEKRQVKQVAKEKLLEQSANSKVQVRRVQKQGNTIRVELELRTNGKKENYTVEVERQGNTWTVKRITRT [P19A]	2.83
EEKRQVKQVAKEKLLEQSHNSKVQVRRVQKQGNTIRVELELRTNGKKENYTVEVERQGNTWTVKRITRT [P19H]	2.92
EEKRQVKQVAKEKLLEQSKNSKVQVRRVQKQGNTIRVELELRTNGKKENYTVEVERQGNTWTVKRITRT [P19K]	3.03
EEKRQVKQVAKEKLLEQSGNSKVQVRRVQKQGNTIRVELELRTNGKKENYTVEVERQGNTWTVKRITRT [P19G]	2.7
EEKRQVKQVAKEKLLEQSQNSKVQVRRVQKQGNTIRVELELRTNGKKENYTVEVERQGNTWTVKRITRT [P19Q]	2.85
EEKRQVKQVAKEKLLEQSRNSKVQVRRVQKQGNTIRVELELRTNGKKENYTVEVERQGNTWTVKRITRT [P19R]	2.76
EEKRQVKQVAKEKLLEQSCNSKVQVRRVQKQGNTIRVELELRTNGKKENYTVEVERQGNTWTVKRITRT [P19C]	3.04
EEKRQVKQVAKEKLVEQSPNSKVQVRRVQKQGNTIRVELELRTNGKKENYTVEVERQGNTWTVKRITRT [L15V]	3.01
EEKRQVKQVAKEKLWEQSPNSKVQVRRVQKQGNTIRVELELRTNGKKENYTVEVERQGNTWTVKRITRT [L15W]	2.92
EEKRQVKQVAKEKLREQSPNSKVQVRRVQKQGNTIRVELELRTNGKKENYTVEVERQGNTWTVKRITRT [L15R]	3.33
EEKRQVKQVAKEKLYEQSPNSKVQVRRVQKQGNTIRVELELRTNGKKENYTVEVERQGNTWTVKRITRT [L15Y]	3.14
EEKRQVKQVAKEKLSEQSPNSKVQVRRVQKQGNTIRVELELRTNGKKENYTVEVERQGNTWTVKRITRT [L15S]	2.83

Variant	folding stability dG [kcal/mol]
EEKRQVKQVAKEKLTEQSPNSKVQVRRVQKQGNTIRVELELRTNGKKENYTVEVERQGNTWTVKRITRT [L15T]	2.92
EEKRQVKQVAKEKLLEVSPNSKVQVRRVQKQGNTIRVELELRTNGKKENYTVEVERQGNTWTVKRITRT [Q17V]	3.91
EEKRQVKQVAKEKLLEHSPNSKVQVRRVQKQGNTIRVELELRTNGKKENYTVEVERQGNTWTVKRITRT [Q17H]	4.04
EEKRQVKQVAKEKLLELSPNSKVQVRRVQKQGNTIRVELELRTNGKKENYTVEVERQGNTWTVKRITRT [Q17L]	4.54
EEKRQVKQVAKEKLLECSPNSKVQVRRVQKQGNTIRVELELRTNGKKENYTVEVERQGNTWTVKRITRT [Q17C]	3.75
EEKRQVKQVAKEKLLEDSPNSKVQVRRVQKQGNTIRVELELRTNGKKENYTVEVERQGNTWTVKRITRT [Q17D]	3.46
EEKRQVKQVAKEKLLEPSPNSKVQVRRVQKQGNTIRVELELRTNGKKENYTVEVERQGNTWTVKRITRT [Q17P]	1.82
EEKRQVKQVAKEKLLEESPNSKVQVRRVQKQGNTIRVELELRTNGKKENYTVEVERQGNTWTVKRITRT [Q17E]	3.31
EEKRQVKQVAKEKLLEYSPNSKVQVRRVQKQGNTIRVELELRTNGKKENYTVEVERQGNTWTVKRITRT [Q17Y]	4
EEKRQVKQVAKEKLLEFSPNSKVQVRRVQKQGNTIRVELELRTNGKKENYTVEVERQGNTWTVKRITRT [Q17F]	4.12
EEKRQVKQVAKEKLLEMSPNSKVQVRRVQKQGNTIRVELELRTNGKKENYTVEVERQGNTWTVKRITRT [Q17M]	4.52
EEKRQVKQVAKEKLLETSPNSKVQVRRVQKQGNTIRVELELRTNGKKENYTVEVERQGNTWTVKRITRT [Q17T]	3.83
EEKRQVKQVAKEKLLEWSPNSKVQVRRVQKQGNTIRVELELRTNGKKENYTVEVERQGNTWTVKRITRT [Q17W]	3.6
EEKRQVKQVAKEKLLEASPNSKVQVRRVQKQGNTIRVELELRTNGKKENYTVEVERQGNTWTVKRITRT [Q17A]	3.68
EEKRQVKQVAKEKLLEKSPNSKVQVRRVQKQGNTIRVELELRTNGKKENYTVEVERQGNTWTVKRITRT [Q17K]	3.77
EEKRQVKQVAKEKLLERSPNSKVQVRRVQKQGNTIRVELELRTNGKKENYTVEVERQGNTWTVKRITRT [Q17R]	3.92
EEKRQVKQVAKEKLLESSPNSKVQVRRVQKQGNTIRVELELRTNGKKENYTVEVERQGNTWTVKRITRT [Q17S]	3.59
EEKRQVKQVAKEKLLEISPNSKVQVRRVQKQGNTIRVELELRTNGKKENYTVEVERQGNTWTVKRITRT [Q17I]	4.39
EEKRQVKQVAKEKLLENSPNSKVQVRRVQKQGNTIRVELELRTNGKKENYTVEVERQGNTWTVKRITRT [Q17N]	3.69
